How the values were obtained:
TGase 2 in cell lysates = target: T1, TGase 2 in cell lysates (Homo sapiens, UniProt P21980); test: FA-based assay of TGase 2 activity in cell lysates, control with inhibitor; format: biochemical, human and mouse; conditions: 10 µM inhibitor, preincubation 10 min; DMC 30 µM, R-I-Cad 0.81 µM; all studied cell lines
T1 construct: endogenous in cells; host or cells: lysates of 30 cell lines (27 human, 3 mouse), e.g. HUVEC, A375
T1 sequence (P21980 2-687 limits assumed): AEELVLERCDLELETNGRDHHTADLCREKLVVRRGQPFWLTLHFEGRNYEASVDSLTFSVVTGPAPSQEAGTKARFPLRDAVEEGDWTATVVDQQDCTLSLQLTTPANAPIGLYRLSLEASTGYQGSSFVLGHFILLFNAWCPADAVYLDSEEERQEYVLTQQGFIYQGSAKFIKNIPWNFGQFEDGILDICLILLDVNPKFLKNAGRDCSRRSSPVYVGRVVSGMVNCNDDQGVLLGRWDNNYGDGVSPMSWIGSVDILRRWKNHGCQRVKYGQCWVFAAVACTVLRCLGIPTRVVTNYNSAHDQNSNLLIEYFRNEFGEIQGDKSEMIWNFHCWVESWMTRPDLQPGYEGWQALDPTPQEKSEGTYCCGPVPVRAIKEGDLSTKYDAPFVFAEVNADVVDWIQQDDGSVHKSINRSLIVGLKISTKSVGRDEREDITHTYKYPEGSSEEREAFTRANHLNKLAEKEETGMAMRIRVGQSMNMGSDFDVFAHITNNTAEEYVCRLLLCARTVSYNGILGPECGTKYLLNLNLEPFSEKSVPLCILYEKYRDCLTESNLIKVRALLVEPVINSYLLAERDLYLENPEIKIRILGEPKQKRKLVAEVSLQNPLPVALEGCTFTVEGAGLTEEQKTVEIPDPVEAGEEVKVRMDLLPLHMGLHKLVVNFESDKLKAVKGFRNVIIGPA
Description: Lysis of cell pellets was performed as described recently. Accordingly, cell pellets were resuspended in 50 µL modified RIPA buffer A, incubated on ice for 30 min and applied to ultrasound (Bandelin Sonopuls, 2 × 15 s, 20% power at ambient temperature). Subsequently, cell lysates were incubated on ice for 10 min and were then spun for 15 min at 4 °C at 15,000× g. The supernatants were transferred into fresh tubes. The protein content was determined with a BCA protein assay (ThermoFisher, Waltham, MA, USA) according to the manufacturer’s protocol. Lysates were stored at −60 °C.

hTGase 6 = target: T2, hTGase 6 (Homo sapiens, UniProt O95932); test: FA-based assay, kinetic characterization of acyl donor DMC with R-I-Cad; format: biochemical; set-up: purchased Zedira T021; conditions: hTGase 6 5 µg/mL, R-I-Cad 0.74 µM, mean (SEM)
T2 sequence (O95932 1-706): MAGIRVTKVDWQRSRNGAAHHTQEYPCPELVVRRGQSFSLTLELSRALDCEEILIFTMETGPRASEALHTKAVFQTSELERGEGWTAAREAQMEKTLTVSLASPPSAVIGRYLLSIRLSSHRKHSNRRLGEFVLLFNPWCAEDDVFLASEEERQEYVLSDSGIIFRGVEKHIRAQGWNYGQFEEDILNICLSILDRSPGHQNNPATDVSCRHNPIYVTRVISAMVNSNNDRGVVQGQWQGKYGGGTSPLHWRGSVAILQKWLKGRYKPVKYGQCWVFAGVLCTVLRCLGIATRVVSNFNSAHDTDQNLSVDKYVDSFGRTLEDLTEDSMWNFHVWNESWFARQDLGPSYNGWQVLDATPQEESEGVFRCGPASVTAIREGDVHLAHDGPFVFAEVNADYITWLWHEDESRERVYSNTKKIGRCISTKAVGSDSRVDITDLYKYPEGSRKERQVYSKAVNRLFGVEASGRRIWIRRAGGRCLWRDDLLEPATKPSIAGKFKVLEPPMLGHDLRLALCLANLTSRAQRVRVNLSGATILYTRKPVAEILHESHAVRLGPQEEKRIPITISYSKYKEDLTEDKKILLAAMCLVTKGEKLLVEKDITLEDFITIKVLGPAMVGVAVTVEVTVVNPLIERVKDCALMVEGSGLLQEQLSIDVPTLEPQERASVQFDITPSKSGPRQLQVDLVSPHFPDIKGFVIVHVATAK
Description: (§1) For the kinetic characterization of DMC (Figure 1B) in the presence of a fixed concentration of R-I-Cad (0.74 µM), eight different concentrations of DMC (0.3–300 µM) were used (2–3 separate experiments, each performed in duplicate). The corresponding stock solutions of DMC and R-I-Cad were prepared in assay buffer A and DMSO, respectively. […] Values for Km, Ki and Vmax were calculated according to the equation of substrate inhibition (Equation (2)). (2) v=Vmax∗[S]/Km+[S]∗(1+[S]/Ki)

hFXIIIa = target: T3, hFXIIIa (Homo sapiens, UniProt P00488); test: as above; format: biochemical; set-up: purchased Zedira T070; conditions: hFXIIIa 5 µg/mL, R-I-Cad 0.74 µM, mean (SEM)
T3 sequence (P00488 39-732 limits assumed): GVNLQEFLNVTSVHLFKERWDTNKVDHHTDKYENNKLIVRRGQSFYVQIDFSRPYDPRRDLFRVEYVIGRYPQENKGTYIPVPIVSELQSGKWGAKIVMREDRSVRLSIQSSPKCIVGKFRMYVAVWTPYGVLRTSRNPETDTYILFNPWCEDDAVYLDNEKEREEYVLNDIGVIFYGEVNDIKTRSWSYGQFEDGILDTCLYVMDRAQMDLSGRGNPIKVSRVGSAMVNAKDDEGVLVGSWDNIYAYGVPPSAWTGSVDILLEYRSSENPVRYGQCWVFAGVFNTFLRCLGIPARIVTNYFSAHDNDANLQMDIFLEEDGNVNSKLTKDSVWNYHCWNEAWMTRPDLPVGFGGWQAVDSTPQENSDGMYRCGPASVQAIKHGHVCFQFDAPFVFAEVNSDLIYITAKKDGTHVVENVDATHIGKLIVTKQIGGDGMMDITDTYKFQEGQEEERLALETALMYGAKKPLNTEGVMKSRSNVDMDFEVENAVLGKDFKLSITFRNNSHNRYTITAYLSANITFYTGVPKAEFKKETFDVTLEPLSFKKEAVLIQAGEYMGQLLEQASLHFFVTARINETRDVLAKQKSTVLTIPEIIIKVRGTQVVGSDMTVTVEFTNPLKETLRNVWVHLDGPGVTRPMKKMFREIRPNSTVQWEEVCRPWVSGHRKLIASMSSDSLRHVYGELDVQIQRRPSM
Description: as §1

[1] = read-out: Ki (substrate inhibition)

FA increase over time in cell lysates in the presence of inhibitor (TGase 2 in cell lysates) | Ki (hTGase 6; [1]) | Ki (hFXIIIa; [1]) | Compound | Km (hTGase 6) | Vmax (hTGase 6; pH 8.0, 30 °C) | Km (hFXIIIa) | Vmax (hFXIIIa; pH 8.0, 30 °C)
below the detection limit | – | – | C=CC(=O)NCCCC[C@H](NC(=O)Cc1ccccc1)C(=O)N1CCN(c2cccc(C)n2)CC1 [Compound 1] | – | – | – | –
– | 189 µM | 135 µM | N,N-dimethylated casein [DMC] | 16.6 µM | 27.1 (4.1) mA mL s^−1 mg^−1 | 17.5 µM | 16.0 (1.1) mA mL s^−1 mg^−1
